According to PMC11811891, “Structural insights into human TFIIIC promoter recognition” (Science Advances, 2023):

Tests used:
[1] = molecular target: TFIIIC220;TFIIIC110;TFIIIC102;TFIIIC90;TFIIIC63;TFIIIC35 (human;human;human;human;human;human, UniProt Q12789;Q8WUA4;Q9Y5Q9;Q9UKN8;Q9Y5Q8;Q969F1 1-2109;1-911;1-886;1-822;1-519;1-213, |||||); experiment: filter binding; 150 mM KCl, 2 mM MgCl2, 4 C; Filter binding: 20 mM Tris-HCl pH 7.5, 150 mM KCl, 2 mM MgCl2, 5 mM DTT, 30 min 4 C, ~0.5 nM DNA; EMSA: 20 mM Hepes pH 8, 225 mM KCl, 2 mM MgCl2, 5 mM DTT, RT 10 min, 0.8% agarose gel at 4 C; conditions: protein: recombinant;recombinant;recombinant;recombinant;recombinant;recombinant; tags: C-terminal 3xFLAG;N-terminal TEV-cleavable His;;;N-terminal TEV-cleavable His;; copies: 1;1;1;1;1;1; label: 5'-32P; blunt
Sequence of TFIIIC220;TFIIIC110;TFIIIC102;TFIIIC90;TFIIIC63;TFIIIC35 (Q12789 whole entry, chain 1 of 3): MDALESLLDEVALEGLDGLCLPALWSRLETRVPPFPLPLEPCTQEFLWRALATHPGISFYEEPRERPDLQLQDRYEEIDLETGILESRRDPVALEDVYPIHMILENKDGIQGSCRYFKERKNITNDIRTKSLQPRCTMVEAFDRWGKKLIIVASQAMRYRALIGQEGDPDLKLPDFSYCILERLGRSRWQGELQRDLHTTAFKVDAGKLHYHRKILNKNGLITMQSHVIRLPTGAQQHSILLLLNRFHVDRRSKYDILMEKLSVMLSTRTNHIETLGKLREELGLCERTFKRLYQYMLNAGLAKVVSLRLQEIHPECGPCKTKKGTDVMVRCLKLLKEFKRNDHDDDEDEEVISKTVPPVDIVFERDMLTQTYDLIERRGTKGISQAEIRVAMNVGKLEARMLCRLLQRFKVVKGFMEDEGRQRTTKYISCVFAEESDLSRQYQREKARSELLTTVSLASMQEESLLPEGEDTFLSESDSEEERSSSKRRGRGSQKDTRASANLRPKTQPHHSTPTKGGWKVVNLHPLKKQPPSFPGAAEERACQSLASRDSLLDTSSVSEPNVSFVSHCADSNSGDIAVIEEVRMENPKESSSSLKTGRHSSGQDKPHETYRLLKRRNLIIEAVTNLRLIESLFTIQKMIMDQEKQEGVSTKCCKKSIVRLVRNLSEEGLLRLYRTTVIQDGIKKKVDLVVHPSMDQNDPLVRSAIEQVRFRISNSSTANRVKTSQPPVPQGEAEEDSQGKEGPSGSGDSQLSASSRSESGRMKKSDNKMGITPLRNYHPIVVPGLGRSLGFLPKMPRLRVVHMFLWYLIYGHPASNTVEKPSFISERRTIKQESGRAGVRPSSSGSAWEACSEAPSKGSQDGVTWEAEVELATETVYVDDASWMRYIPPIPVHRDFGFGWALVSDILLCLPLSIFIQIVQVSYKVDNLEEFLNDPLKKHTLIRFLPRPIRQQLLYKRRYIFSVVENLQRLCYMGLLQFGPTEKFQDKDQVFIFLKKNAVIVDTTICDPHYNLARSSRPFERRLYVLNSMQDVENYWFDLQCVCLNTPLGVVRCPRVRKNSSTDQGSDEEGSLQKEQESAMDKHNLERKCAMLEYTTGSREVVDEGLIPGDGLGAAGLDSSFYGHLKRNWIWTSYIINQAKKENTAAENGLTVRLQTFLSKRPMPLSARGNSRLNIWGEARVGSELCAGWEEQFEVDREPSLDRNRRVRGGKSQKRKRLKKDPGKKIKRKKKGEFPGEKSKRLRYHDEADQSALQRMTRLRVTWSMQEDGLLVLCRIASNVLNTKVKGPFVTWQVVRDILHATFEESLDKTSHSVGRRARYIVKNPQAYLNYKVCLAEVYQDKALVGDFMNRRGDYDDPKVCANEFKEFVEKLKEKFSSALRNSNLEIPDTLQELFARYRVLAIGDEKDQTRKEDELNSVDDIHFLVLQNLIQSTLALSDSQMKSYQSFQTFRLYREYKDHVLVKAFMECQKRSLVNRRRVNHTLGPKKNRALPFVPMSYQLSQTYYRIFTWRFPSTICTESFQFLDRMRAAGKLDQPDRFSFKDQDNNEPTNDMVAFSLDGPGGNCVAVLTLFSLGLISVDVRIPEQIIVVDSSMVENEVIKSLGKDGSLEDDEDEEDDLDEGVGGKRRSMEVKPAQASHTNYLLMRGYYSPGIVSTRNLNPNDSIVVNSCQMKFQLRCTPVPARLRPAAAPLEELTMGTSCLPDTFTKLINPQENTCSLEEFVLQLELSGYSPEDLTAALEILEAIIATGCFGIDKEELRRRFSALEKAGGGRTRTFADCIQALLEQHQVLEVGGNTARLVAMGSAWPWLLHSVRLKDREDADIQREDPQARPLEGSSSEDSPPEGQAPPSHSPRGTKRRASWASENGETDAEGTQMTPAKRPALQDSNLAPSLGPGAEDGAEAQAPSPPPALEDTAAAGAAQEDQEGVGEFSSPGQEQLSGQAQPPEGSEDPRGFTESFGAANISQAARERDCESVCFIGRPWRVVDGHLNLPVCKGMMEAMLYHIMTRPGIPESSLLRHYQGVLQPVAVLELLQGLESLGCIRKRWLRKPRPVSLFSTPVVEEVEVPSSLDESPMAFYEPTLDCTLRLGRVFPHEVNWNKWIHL
Sequence of TFIIIC220;TFIIIC110;TFIIIC102;TFIIIC90;TFIIIC63;TFIIIC35 (Q8WUA4 whole entry, chain 2 of 3): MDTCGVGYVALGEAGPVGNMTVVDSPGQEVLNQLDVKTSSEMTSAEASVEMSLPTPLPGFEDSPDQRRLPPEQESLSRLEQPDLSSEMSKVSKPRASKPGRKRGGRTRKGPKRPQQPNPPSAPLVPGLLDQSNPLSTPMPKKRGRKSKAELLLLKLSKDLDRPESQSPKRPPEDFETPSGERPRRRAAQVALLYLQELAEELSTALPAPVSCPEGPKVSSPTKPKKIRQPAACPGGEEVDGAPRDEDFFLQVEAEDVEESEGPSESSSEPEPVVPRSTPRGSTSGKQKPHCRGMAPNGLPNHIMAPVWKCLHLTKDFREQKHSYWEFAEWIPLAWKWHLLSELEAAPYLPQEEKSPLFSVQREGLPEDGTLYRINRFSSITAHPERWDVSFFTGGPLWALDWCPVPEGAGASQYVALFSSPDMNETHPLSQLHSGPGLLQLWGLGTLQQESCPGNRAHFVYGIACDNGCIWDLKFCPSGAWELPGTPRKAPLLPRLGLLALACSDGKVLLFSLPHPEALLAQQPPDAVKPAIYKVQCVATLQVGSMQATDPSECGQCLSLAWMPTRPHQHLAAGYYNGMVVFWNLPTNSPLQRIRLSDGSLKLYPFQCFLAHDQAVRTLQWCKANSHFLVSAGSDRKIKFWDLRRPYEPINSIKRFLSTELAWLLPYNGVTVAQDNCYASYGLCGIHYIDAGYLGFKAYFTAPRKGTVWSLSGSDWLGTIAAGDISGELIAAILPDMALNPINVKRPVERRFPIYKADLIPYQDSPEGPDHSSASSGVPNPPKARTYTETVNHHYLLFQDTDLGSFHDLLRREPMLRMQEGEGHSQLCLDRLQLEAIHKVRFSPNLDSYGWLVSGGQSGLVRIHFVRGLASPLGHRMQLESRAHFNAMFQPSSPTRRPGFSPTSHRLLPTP
Sequence of TFIIIC220;TFIIIC110;TFIIIC102;TFIIIC90;TFIIIC63;TFIIIC35 (Q9UKN8 whole entry, chain 4 of 3): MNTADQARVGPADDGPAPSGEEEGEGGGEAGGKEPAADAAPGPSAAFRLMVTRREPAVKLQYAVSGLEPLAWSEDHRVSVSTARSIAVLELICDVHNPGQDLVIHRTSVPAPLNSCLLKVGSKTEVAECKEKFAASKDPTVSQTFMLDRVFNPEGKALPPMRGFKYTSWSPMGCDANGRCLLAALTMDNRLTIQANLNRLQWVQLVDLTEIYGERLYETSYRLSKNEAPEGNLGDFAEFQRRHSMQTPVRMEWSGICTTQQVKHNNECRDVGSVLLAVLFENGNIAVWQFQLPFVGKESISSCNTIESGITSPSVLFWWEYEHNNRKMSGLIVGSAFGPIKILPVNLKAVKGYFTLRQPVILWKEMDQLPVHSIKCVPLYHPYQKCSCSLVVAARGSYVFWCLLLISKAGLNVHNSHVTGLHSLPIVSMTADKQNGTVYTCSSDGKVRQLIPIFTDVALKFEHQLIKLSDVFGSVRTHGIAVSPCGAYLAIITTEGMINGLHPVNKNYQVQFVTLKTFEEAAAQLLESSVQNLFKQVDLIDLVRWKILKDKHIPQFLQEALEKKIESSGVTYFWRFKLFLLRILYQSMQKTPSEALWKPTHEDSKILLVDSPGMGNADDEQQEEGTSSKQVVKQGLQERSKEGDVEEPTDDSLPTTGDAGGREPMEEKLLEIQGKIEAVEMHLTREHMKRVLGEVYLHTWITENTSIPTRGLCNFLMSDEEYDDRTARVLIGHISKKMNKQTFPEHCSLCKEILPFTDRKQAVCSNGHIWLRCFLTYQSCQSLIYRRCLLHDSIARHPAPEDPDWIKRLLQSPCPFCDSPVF

[2] = molecular target: T1, human TFIIIC subunit TFIIIC102 (human, UniProt Q9Y5Q9 1-886); experiment: cryo-EM structure; purified hTFIIIC (3.17 μM) alone or with human TRR-TCT3-2 tRNA gene DNA at a 1:1 molar ratio; EM buffer 20 mM Hepes pH 8, 225 mM KCl, 2 mM MgCl2, 5 mM DTT; 0.1% octyl-β-glucoside; separate reconstructions of τA and of dimeric τB; conditions: both partners purified
T1 construct: TFIIIC102, subunit of human TFIIIC; No truncation is described; also called τ131 in yeast (homolog); GTF3C3; source: Sf21 insect cells, baculovirus, coexpressed with the other five hTFIIIC subunits; purified (anti-FLAG M2 agarose, Capto HiRes Q)
T1 sequence: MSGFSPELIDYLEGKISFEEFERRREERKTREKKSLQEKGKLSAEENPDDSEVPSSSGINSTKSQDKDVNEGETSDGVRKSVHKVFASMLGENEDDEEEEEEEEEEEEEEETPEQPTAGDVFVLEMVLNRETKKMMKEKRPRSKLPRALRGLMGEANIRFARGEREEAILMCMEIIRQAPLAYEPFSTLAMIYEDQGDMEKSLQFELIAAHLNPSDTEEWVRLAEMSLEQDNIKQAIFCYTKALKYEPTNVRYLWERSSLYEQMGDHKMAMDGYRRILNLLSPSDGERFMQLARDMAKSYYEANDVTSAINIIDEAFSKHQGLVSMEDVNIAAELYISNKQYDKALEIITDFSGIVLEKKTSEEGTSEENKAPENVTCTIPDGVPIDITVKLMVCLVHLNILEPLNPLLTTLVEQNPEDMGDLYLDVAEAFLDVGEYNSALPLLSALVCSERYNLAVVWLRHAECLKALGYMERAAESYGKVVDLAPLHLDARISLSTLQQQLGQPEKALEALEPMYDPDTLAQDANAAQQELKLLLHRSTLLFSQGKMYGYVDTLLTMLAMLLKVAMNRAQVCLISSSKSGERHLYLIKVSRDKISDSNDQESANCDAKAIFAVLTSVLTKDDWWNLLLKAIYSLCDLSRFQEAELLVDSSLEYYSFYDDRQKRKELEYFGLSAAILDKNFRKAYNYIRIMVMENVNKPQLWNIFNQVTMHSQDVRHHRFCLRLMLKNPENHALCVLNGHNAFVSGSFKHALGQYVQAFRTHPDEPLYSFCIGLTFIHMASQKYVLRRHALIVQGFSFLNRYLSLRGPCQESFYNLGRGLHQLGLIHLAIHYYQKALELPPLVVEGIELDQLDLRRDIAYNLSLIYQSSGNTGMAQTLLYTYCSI

[3] = molecular target: T2, human TFIIIC subunit TFIIIC220 (human, UniProt Q12789 1-2109); experiment: as above; conditions: both partners purified
T2 construct: TFIIIC220, largest subunit of human TFIIIC; 2109 amino acids as printed; No truncation is described; the expected mass of 624 kDa is that of the intact complex; also called τ138 in yeast (homolog); GTF3C1; source: Sf21 insect cells, baculovirus, coexpressed with the other five hTFIIIC subunits; purified (anti-FLAG M2 agarose, Capto HiRes Q); not shown: 3x FLAG, C-terminal, kept
T2 sequence (Q12789 whole entry, the tested form may be a part): as the sequence (Q12789 whole entry, chain 1 of 3) above

B1: TRR-TCT3-2 tRNA gene, 32P-labeled (dsDNA)
DNA 1: ACGTGTCTGGCTCTGTGGCGCAATGGATAGCGCATTGGACTTCTAGATAGTTAGAGAAATTCAAAGGTTGTGGGTTCGAGTCCCACAGAGTCGCTTTT
DNA 2: AAAAGCGACTCTGTGGGACTCGAACCCACAACCTTTGAATTTCTCTAACTATCTAGAAGTCCAATGCGCTATCCATTGCGCCACAGAGCCAGACACGT
- Kd [1]: 40 nM

B2: TFIIIC35-TFIIIC63 heterodimer (complex, human)
chain 1: MAAAADERSPEDGEDEEEEEQLVLVELSGIIDSDFLSKCENKCKVLGIDTERPILQVDSCVFAGEYEDTLGTCVIFEENVEHADTEGNNKTVLKYKCHTMKKLSMTRTLLTEKKEGEENIGGVEWLQIKDNDFSYRPNMICNFLHENEDEEVVASAPDKSLELEEEEIQMNDSSNLSCEQEKPMHLEIEDSGPLIDIPSETEGSVFMETQMLP
chain 2: MAAEAADLGLGAAVPVELRRERRMVCVEYPGVVRDVAKMLPTLGGEEGVSRIYADPTKRLELYFRPKDPYCHPVCANRFSTSSLLLRIRKRTRRQKGVLGTEAHSEVTFDMEILGIISTIYKFQGMSDFQYLAVHTEAGGKHTSMYDKVLMLRPEKEAFFHQELPLYIPPPIFSRLDAPVDYFYRPETQHREGYNNPPISGENLIGLSRARRPHNAIFVNFEDEEVPKQPLEAAAQTWRRVCTNPVDRKVEEELRKLFDIRPIWSRNAVKANISVHPDKLKVLLPFIAYYMITGPWRSLWIRFGYDPRKNPDAKIYQVLDFRIRCGMKHGYAPSDLPVKAKRSTYNYSLPITVKKTSSQLVTMHDLKQGLGPSGTSGARKPASSKYKLKDSVYIFREGALPPYRQMFYQLCDLNVEELQKIIHRNDGAENSCTERDGWCLPKTSDELRDTMSLMIRQTIRSKRPALFSSSAKADGGKEQLTYESGEDEEDEEEEEEEEEDFKPSDGSENEMETEILDYV
notes: TFIIIC35, subunit of human TFIIIC; as the chain of m6; TFIIIC63, subunit of human TFIIIC; as the chain of m5; source: Sf21 insect cells, baculovirus, coexpressed within the six-subunit hTFIIIC complex; purified (anti-FLAG M2 agarose, Capto HiRes Q)
- binding result [2]: binds
- binding result [3]: binds
